Results reported in US20240317865A1 (MOMENTA PHARMACEUTICALS, published 2024).

Key:
[1] = biological target: T1, recombinant human integrin alpha 11 beta 1 (α11β1) (human, UniProt Q9UKX5 23-1141; P05556 21-728); test: SPR (Biacore T200), HIS-tagged human α11β1 captured by anti-HIS antibody, single-cycle kinetics, 1:1 Langmuir fit
T1 construct: Coated in ELISA; also called human α11β1; soluble human α11β1
Procedure: The affinity of antibodies for human α11β1 was measured by surface plasmon resonance assay (SPR). Affinity was measured at pH 7.6 and 25° C. with a Biacore T200 instrument. Anti-HIS antibody was immobilized on the SPR sensor surface using EDC/NHS covalent attachment. HIS-tagged human α11β1 was captured on the sensor surface and a single-cycle kinetics assay was used. Increasing concentrations of test antibody were injected in series over the sensor-bound α11β1. Dissociation was monitored for 1000 seconds. A sensor surface with only anti-HIS antibody and a series of blank injections were used to double-reference subtract the data. A 1:1 Langmuir model was fit to the data to estimate the kinetic association and dissociation constants. The affinity (equilibrium dissociation constant) of the interaction was calculated by dividing the kinetic dissociation constant by the kinetic association constant. Between injection cycles α11β1 and bound antibody were removed with an injection of 10 mM glycine at pH 1.5.
The binding affinity of antibodies for the α11β1 Headpiece and α11β1 I Domain as measured by SPR is shown in FIG. 10A and FIG. 10B, respectively.

[2] = biological target: α11β1 on CHO-K1 cells stably expressing human α11 (CHO-K1 hu α11) (human, UniProt Q9UKX5 23-1188); test: cell-based or functional assay
[3] = biological target: T1, recombinant human integrin alpha 11 …; test: ELISA on plate-coated recombinant human α11β1, OD 450nm
Procedure: 0.25 μg/mL of target antigen (recombinant human or mouse α11β1) was plated in a 96-well plate over night at 4° C. Plates were washed (PBS with 0.1% Tween-20), blocked (PBS with 2% BSA and 0.05% Tween-20) for 1 hour at room temperature and incubated with a range of antibody concentrations for 1 hour at room temperature. Subsequently, plates were washed and incubated with biotinylated anti-rabbit/mouse/human IgG in a 1:1000 dilution buffer and incubated for 1 hour at room temperature. After washing the plates, Streptavidin HRP was added at 1:200 in dilution buffer and incubated for 1 hour at room temperature. Ultra TMB ELISA substrate solution was added and the plates incubated for 5 minutes on a plate shaker. The reaction was stopped by adding stop solution to each well and plates were read at 450 nm.

[4] = biological target: T2, α11β1 on human myofibroblasts (MF) (human, UniProt Q9UKX5 23-1188; P05556 21-798); test: FACS (PE) on human myofibroblasts, histogram
T2 construct: whole, on cells; Human pulmonary fibroblasts treated with TGFβ
T2 sequence (Q9UKX5 23-1188, chain 1 of 2): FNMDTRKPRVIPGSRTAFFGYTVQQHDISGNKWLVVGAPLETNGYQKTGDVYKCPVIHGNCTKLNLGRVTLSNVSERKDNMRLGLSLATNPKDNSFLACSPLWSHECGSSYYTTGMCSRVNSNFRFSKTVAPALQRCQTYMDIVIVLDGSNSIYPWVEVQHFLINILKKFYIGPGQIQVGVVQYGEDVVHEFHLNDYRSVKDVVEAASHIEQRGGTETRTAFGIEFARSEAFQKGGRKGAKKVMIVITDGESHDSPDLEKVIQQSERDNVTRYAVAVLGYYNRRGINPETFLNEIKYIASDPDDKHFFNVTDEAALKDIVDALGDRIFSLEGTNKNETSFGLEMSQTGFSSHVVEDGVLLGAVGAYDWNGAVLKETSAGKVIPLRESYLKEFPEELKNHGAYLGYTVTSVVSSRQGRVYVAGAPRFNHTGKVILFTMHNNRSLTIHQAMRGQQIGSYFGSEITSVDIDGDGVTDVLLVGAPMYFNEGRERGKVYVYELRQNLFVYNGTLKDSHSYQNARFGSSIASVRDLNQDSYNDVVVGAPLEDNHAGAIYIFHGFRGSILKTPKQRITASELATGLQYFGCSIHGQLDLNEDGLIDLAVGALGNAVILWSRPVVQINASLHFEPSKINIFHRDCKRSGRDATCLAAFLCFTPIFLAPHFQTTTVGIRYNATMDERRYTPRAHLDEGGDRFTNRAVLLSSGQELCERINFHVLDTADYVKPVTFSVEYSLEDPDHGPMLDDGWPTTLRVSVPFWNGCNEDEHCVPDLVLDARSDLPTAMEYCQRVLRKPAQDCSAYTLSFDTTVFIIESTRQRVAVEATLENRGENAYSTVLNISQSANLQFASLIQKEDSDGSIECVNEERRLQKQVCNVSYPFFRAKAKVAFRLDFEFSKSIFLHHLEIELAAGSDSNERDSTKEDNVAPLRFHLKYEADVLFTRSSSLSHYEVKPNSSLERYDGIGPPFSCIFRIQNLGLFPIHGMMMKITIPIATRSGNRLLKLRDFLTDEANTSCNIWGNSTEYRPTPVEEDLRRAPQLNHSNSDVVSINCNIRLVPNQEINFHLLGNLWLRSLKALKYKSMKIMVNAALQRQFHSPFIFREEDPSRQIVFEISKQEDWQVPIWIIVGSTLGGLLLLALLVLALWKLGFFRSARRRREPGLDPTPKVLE
T2 sequence (P05556 21-798, chain 2 of 2): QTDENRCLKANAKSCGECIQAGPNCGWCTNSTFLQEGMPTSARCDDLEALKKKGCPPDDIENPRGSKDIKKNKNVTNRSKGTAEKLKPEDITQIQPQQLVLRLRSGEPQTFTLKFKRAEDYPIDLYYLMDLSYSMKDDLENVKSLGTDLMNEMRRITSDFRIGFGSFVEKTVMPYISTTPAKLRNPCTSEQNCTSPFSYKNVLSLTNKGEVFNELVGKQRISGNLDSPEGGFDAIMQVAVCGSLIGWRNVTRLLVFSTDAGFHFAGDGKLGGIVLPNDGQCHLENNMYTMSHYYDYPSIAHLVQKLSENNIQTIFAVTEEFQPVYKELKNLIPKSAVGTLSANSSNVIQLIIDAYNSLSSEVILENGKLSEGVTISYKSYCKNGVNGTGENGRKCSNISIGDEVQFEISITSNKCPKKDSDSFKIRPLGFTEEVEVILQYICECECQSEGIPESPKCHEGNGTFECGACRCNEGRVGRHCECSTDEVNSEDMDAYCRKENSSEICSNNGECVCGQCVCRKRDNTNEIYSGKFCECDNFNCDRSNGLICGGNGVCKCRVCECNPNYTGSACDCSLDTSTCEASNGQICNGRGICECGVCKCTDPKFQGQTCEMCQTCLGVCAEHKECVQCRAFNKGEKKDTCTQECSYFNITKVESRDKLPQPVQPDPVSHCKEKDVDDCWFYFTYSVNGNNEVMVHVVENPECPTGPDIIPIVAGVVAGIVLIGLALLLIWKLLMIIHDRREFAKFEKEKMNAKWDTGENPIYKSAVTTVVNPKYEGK

T1 sequence (Q9UKX5 23-1141 limits assumed, chain 1 of 2): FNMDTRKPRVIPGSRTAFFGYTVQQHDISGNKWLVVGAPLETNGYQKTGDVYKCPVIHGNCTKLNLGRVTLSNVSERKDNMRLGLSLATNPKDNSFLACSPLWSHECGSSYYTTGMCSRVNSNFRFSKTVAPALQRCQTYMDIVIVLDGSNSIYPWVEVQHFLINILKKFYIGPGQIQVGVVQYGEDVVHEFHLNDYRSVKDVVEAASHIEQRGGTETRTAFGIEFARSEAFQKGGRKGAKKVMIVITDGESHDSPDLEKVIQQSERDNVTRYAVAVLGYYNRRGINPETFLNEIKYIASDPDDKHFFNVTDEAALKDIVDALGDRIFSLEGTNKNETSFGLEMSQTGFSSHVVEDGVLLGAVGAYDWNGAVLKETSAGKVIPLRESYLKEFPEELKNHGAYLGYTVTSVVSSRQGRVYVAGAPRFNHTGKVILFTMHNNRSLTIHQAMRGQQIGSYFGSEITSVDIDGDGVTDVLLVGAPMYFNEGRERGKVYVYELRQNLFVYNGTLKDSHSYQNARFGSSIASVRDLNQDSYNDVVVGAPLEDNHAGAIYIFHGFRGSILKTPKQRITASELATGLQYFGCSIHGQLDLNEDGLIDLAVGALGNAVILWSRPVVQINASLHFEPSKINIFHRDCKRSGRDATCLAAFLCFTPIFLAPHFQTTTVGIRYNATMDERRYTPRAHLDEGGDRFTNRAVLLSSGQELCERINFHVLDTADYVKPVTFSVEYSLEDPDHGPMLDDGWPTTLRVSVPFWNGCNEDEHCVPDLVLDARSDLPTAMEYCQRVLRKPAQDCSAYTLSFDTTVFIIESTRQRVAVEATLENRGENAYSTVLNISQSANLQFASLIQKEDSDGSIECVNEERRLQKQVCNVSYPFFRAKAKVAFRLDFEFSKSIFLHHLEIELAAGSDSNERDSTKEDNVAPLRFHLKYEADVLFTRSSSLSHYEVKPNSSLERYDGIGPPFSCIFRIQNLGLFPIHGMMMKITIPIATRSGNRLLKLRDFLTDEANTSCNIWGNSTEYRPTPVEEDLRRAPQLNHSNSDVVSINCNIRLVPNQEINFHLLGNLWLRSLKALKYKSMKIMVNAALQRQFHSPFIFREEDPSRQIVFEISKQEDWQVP
T1 sequence (P05556 21-728 limits assumed, chain 2 of 2): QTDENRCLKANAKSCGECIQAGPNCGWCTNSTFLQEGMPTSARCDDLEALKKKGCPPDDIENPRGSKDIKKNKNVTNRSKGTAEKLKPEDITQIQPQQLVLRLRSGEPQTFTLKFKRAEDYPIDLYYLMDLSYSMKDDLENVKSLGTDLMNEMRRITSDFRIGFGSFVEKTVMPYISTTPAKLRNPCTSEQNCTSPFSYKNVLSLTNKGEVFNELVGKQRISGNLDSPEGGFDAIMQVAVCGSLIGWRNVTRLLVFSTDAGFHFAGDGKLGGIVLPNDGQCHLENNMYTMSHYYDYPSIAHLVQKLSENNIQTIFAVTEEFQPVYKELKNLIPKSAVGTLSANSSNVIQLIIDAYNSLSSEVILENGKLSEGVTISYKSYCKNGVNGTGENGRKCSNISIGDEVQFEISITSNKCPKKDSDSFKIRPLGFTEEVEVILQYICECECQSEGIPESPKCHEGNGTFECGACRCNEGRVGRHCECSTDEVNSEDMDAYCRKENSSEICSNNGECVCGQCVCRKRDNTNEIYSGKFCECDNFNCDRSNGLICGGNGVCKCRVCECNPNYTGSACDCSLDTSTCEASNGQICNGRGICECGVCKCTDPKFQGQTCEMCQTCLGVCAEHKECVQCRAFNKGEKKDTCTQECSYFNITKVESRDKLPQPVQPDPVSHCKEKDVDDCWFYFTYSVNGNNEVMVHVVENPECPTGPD
Sequence of α11β1 on CHO-K1 cells stably expressing human α11 (CHO-K1 hu α11) (Q9UKX5 23-1188): as the sequence (Q9UKX5 23-1188, chain 1 of 2) above

Row | Binder | koff [1] [s⁻¹] | kon [1] [M⁻¹ s⁻¹] | IC50, inhibition of adhesion of CHO-α11 cells to type I collagen, dose curve [2] [nM] | binding result [3] | binding result [4]
1 | A11B1_16E10 (antibody, V domains shown, rabbit monoclonal, recombinantly produced in HEK cells; full chains) VH: QSLEESGGDLVKPGASLTLTCRVSGFSFSSSYYMCWVRQAPGKGLEWIACIGTTRGSTYYATWAKGRFTISKISSTTVTLQMTSLTDADTATYFCARDATGYRINTIGLYFNLWGPGTLVTVSS VL: AFELTQTPSSVEAAVGGTPTIKCQASQTIYSYLSWYQQKPGQPPKLLIYEASKLASGVPSRFSGSGSGTDYTLTISDLECADAATYYCQSYHGTASTEYNTFGGGTEVVVRG | 0.000224 | 4.68e+06 | 0.39 | – | –
2 | 8-J17 (antibody, V domains shown, mouse hybridoma IgG) VH: QVQLQQSGAELAKPGASVKMSCKASGYTFTNYWMHWVKQRPGQGLEWIGYINPNNGYTEYNQRFKDKATLTADRSSTTAYMQLSSLTSEDSAVYYCARSDIITTDYWGQGTTLTVSS VL: DVVMTQTPLSLPVSLGDQASISCRSSQSLVYSNGNTYLHWYLQKPGQSPKLLIYKVSNRFSGVPDRFSGSGSGTDFTLKISRVEAEDLGVYFCSQSTHVPWTFGGGTKLEIK | – | – | – | binds | binds
